{"source": "paper PMC8752837", "about": "“Structural basis of BAK activation in mitochondrial apoptosis initiation” (Nature Communications, 2022)", "molecules": {"B1": {"name": "I81R (3): BAK missense mutant (protein, UniProt Q16611 2-211, looked up, variant I81R)", "Bcl-2 homologous …": "ASGQGPGPPRQECGEPALPSASEEQVAQDTEEVFRSYVFYRHQQEQEAEGVAAPADPEMVTLPLQPSSTMGQVGRQLAIRGDDINRRYDSEFQTMLQHLQPTAENAYEYFTKIATSLFESGINWGRVVALLGFGYRLALHVYQHGLTGFLGQVTRFVVDFMLHHCIARWIAQRGGWVAALNLGNGPILNVLVVLGVVLLGQFVVRRFFKS"}, "B2": {"name": "WT BAK: C-terminus truncated recombinant human BAK with C-terminal 6× histidine tag (protein, UniProt Q16611 2-211, looked up)", "Bcl-2 homologous …": "B1 Bcl-2 homologous … with R80I"}}, "key": {"BAK [1]": {"tested_on": "BAK", "assay": "Dye-based thermal shift assay (SYPRO Orange)", "assay_type": "physicochemical, human", "settings": "rebuttal", "description": "To control for effect of mutations on protein stability, which may confound interpretation of impairment in BAK autoactivation, we measured the Tm of BAK WT and mutants (Supplementary Fig. 3f).\n(§1) We carried out TSA in 20 µL reactions in 384-well PCR plate (Cat# AB1384, Thermo Fisher Scientific) in 20 mM HEPES pH 7.0, 150 mM NaCl, 2 mM DTT), SYPRO ^TM Orange (5×) and 0.25 mg/mL purified BAK. To remove air bubbles we sealed assay plates with MicroAmp Optical Adhesive, incubated them for 2–5 min, and centrifuged them (1000 × rpm). We subjected the assay plates to 25–99 °C thermal gradient with 1°/minute increment and recorded fluorescence using Applied Biosystems Quant Studio 5. We performed three experiments in quadruplicate for each sample. We performed data processing and visualization in RISE, and final data analysis in Excel and GraphPad Prism. We also carried out dye-free TSA using capillary-based Prometheus NT.48 Nano Differential Scanning Fluorimetry (Nanotemper) in the same buffer conditions with 15 μM BAK. Melting temperature (Tm) values were obtained from the first derivative of melting scans."}, "[2]": {"tested_on": "BCL2allKO HCT116 cells reconstituted with Dox-inducible mC-BAK", "assay": "Dox-induced cell death by IncuCyte imaging of SYTOX Green uptake (autoactivation)", "assay_type": "cell-based, human", "settings": "for AUC (48 hr) of SYTOX Green counts/confluence: mC-BAK BCL2allKO HCT116 + Dox + qVD, average, N = 3", "description": "For mammalian cell culture experiments, we cloned the full length human BAK cDNA into pCR 2.1 TOPO vector, mutated BAK as needed, and PCR amplified the BAK gene for cloning into the BamHI and NotI sites of pRETROX mCherry vector for retroviral transduction. Amplification and mutagenesis primers are included in Supplementary Table 4. To test direct BAK activation and BAK autoactivation in cells, we produced cells stably expressing mCherry-human BAK (mC-BAK) ± human BID (BID) on a genetic background devoid of the entire BCL-2 family repertoire (all 17 BCL-2 genes), BCL2allKO HCT116, as described by the Xu Luo laboratory. We expressed WT and mutant mC-BAK using the doxycycline (Dox)-based inducible Tet-On 3G retroviral system from the pRetroX-TRE3G-Puro^R in BCL2allKO HCT116 cells expressing the Tet3G from pRetroX-Tet3G-Blast^R. We selected cells with puromycin (2.5 µg/mL) and blasticidin (2 µg/mL) starting at 2 days after retroviral transduction. To enrich for populations of cells that express mC-BAK, we treated cells with low Dox dose (25 ng/mL) and fluorescence-activated cell sorted (FACS) the mCherry positive cells. We performed the enrichment twice before cell death analysis. One caveat of our cellular system is tagging BAK with N-terminal mCherry, which may affect folding efficiency, degradation, and BAK interactome.\n(§2) We seeded cells in 24-well (100,000 cells/well), 96-well (15,000 cells/well), or 384-well (10,000 cells/well) plates coated with 10 µg/mL fibronectin. After ≥24 h of attachment and recovery, we induced cell death with Dox (up to 1000 ng/mL) and monitored SYTOX Green (25 nM) uptake by Incucyte imaging. This dye marks cells with compromised plasma membrane integrity. mC-BAK expressed before 24 h, which coincided with detectable cell death. We monitored Incucyte imaging for up to 48 h, followed by endpoint FACS analysis to measure the extent of cell death based on SYTOX Green positive cells on FACSCalibur systems (BD Biosciences). As expected, cells with low mCherry fluorescence were refractory to cell death."}, "[3]": {"tested_on": "BCL2allKO HCT116 cells reconstituted with mC-BAK", "assay": "Endpoint FACS analysis of SYTOX Green positive cells", "assay_type": "cell-based, human", "settings": "average, N = 3", "description": "as §2"}, "[4]": {"assay": "Liposome permeabilization by WT and mutant BAK proteins (autoactivation, or direct activation by BID BH3)", "assay_type": "biochemical", "settings": "no BH3 peptide; liposomes with […] DGS-NTA(Ni); Fig. 1a", "description": "Human BAK-∆TM-His6 (BAK)[26] spontaneously permeabilizes liposomes above a certain dose (>100 nM, Fig. 1a). In these dye-release assays[43]–[46], BAK is recruited via His-tag to liposomes containing 2.5 µM of the lipid 1,2-dioleoyl-sn-glycero-3-[(N-(5-amino-1-carboxypentyl)iminodiacetic acid)succinyl] (nickel salt), DGS-NTA(Ni).\nTo probe autoactivation with full-length BAK, we mutated hydrophobic residues at positions (0)−(6) of the BH3 to alanine or arginine, and D83, which forms the conserved salt bridge (s) with R127, to alanine (Fig. 2a). The BH3 residues participate in autoactivation from the ligand side [hydrophobic positions (0)–(5) and D83(s)] and also from the receptor groove side [hydrophobic positions (3)–(5)] (Fig. 2a). Thus, substitutions at positions (3)–(5) should affect receptor and ligand activities and are predicted to impact BAK activation more severely than mutations of positions (0)–(2), which affect only ligand activity. […] In contrast, almost all (2)–(5) and (s) missense mutants were considerably impaired in autoactivation (Fig. 2b and Supplementary Fig. 3a). […] Despite impairment in autoactivation, all missense mutants were directly activated by BID BH3 peptide, although they induced lower level of permeabilization compared to WT BAK (Fig. 2b and Supplementary Fig. 3a).\nWe performed liposome permeabilization assays as previously described[43]–[46]. […] (nickel salt) [DGS NTA(Ni), 2.5 μM final concentration in each assay] (Avanti Polar Lipids). We prepared 12.5 mM fluorophore; 8-aminonaphthalene-1, 3, 6-trisulfonic acid, disodium salt (ANTS) and 45 mM quencher; p-xylene-bis-pyridiniumbromide (DPX) in LUV buffer (10 mM HEPES pH 6.8, 200 mM KCl and 5 mM MgCl2). We mixed the lipid film in ANTS/DPX solution by vortexing and sonication (~15 min) followed by extrusion through polycarbonate membrane of 2 μm pore size (Avanti Polar lipids) to generate homogenous large unilamellar vesicles (LUVs). We separated LUVs from free ANTS/DPX by S500 size exclusion chromatography and stored them at 4 °C in the dark. We prepared peptide and protein dilutions in 96-well black flat bottom plates (Costar) kept on ice. ANTS release from permeabilized liposomes causes an increase in fluorescence, which we monitored at 37 °C for 90 min using a CLARIOSTAR microplate reader (BMG Labtech) set at excitation and emission wavelengths of 360 and 530 nm, respectively. We normalized the data relative to maximum and minimum fluorescence induced by 3% CHAPS and buffer controls, respectively. We quantified liposome permabilization by integrating area under curve (AUC) of normalized traces based on the Simpson’s equation, and analyzed that data in Excel and GraphPad Prism. AUC measurements reflect the kinetic and extent of liposome permeabilization and provide quantitative means for comparison between different experimental conditions (e.g., BAK mutants with gross or partial variation in activity). Variability in permeabilization of different liposomes is common and our analyses compare among conditions investigated with the same liposomes. Although the absolute permeabilization values may differ, the trends for the same conditions are always very similar between different liposomes."}, "BAK [5]": {"tested_on": "BAK", "assay": "Dye-free nano Differential Scanning Fluorimetry thermal shift assay", "assay_type": "physicochemical, human", "settings": "without DTT; mean of N = 3; Suppl. Fig. 7h", "description": "Through rational design and structural analysis, we expand the list of activated BAK complexes, supporting requisite BH3 ligand-induced destabilization of helix α1 (see below).\nas §1"}}, "note": "Positions count from the first letter of the chain named. In names and notes the source's numbering stands.", "data": [{"molecule": "B1", "values": [{"measurement": "difference in Tm compared to WT", "setting": "BAK [1]", "result": "< 2", "unit": "°C"}, {"measurement": "Dox-induced cell death", "setting": "[2]; IncuCyte SYTOX Green up to 48 h", "result": "inactive irrespective of Dox dose"}, {"measurement": "AUC (48 hr) of SYTOX Green counts/confluence", "setting": "[2]; Dox 100 ng/mL", "result": 331.061}, {"measurement": "AUC (48 hr) of SYTOX Green counts/confluence", "setting": "[2]; Dox 1000 ng/mL", "result": 348.847}, {"measurement": "flow cytometry SYTOX Green counts/confluence (48 hr)", "setting": "[3]; Dox 100 ng/mL", "result": 2.517}, {"measurement": "flow cytometry SYTOX Green counts/confluence (48 hr)", "setting": "[3]; Dox 1000 ng/mL", "result": 4.75}]}, {"molecule": "B2", "values": [{"measurement": "BAK dose above which liposomes are spontaneously permeabilized", "setting": "[4]", "result": "> 100", "unit": "nM"}, {"measurement": "Melting temperature for 3 exps, Mean", "setting": "BAK [5]", "result": 77, "unit": "°C"}]}]}
